Source: the supplement of paper PMC7125110
± gives the standard error. For some assays here: This sample holds only a part of the variants without activity.

B1: glmS ribozyme (parent)
chain: AUAAAAGCGCCAGAACUACAGAAAUGUAGUUGACGAGGAGGAGGUUUAUCGAAUUUUCGGCGGAUGCCUCCAAA

Columns and labels:
Conditions in all cases: with glucosamine-6-phosphate
[1] = variants of: B1; test: kcat; higher = faster cleavage; RNA array
Procedure, shortened: (§1)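 Ribozyme variants carrying barcodes were transcribed in situ on sequenced MiSeq chips by E. coli RNA polymerase and tracked at 37 °C with a hybridised Cy3 probe. They were exposed to 40 μM to 10 mM glucosamine-6-phosphate in HEPES/KCl/Mg(OAc)2 buffer. kobs came from exponential decay fits of normalised per-tile medians, and kcat and KM from weighted Michaelis–Menten fits.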

[2] = variants of: B1; test: KM; higher = weaker cofactor use; RNA array
Procedure, shortened: as §1

[3] = variants of: B1; test: self-cleavage kobs at 40 uM GlcN6P; higher = faster cleavage; RNA array
Procedure, shortened: as §1

[4] = variants of: B1; test: self-cleavage kobs at 160 uM GlcN6P; higher = faster cleavage; RNA array
Procedure, shortened: as §1

[5] = variants of: B1; test: self-cleavage kobs at 640 uM GlcN6P; higher = faster cleavage; RNA array
Procedure, shortened: as §1

[6] = variants of: B1; test: self-cleavage kobs at 2500 uM GlcN6P; higher = faster cleavage; RNA array
Procedure, shortened: as §1

[7] = variants of: B1; test: self-cleavage kobs at 10000 uM GlcN6P; higher = faster cleavage; RNA array
Procedure, shortened: as §1

Row | Variant | kcat [1] | KM [2] | self-cleavage kobs at 40 uM GlcN6P [3] | self-cleavage kobs at 160 uM GlcN6P [4] | self-cleavage kobs at 640 uM GlcN6P [5] | self-cleavage kobs at 2500 uM GlcN6P [6] | self-cleavage kobs at 10000 uM GlcN6P [7]
1 | A12U U31A | 0.0283 ± 0.0065 s⁻¹ | 2890 ± 880 µM | 0.000416 ± 7.3e-05 s⁻¹ | 0.00177 ± 0.00045 s⁻¹ | 0.00457 ± 0.0011 s⁻¹ | 0.0106 ± 0.0026 s⁻¹ | 0.0257 ± 0.0049 s⁻¹
2 | G13C C71G | 2.45e-05 ± 2.8e-06 s⁻¹ |  |  |  |  |  | 
3 | A12C C61A | < 1e-05 s⁻¹ |  |  |  |  |  | < 1e-05 s⁻¹
4 | G13C A15G U45A | 0.000289 ± 4.4e-05 s⁻¹ | 3490 ± 950 µM | < 1e-05 s⁻¹ |  | 4.01e-05 ± 1.3e-05 s⁻¹ | 0.000129 ± 2.4e-05 s⁻¹ | 0.000208 ± 4.4e-05 s⁻¹
5 | A12C G66U | 0.00165 ± 0.00058 s⁻¹ | 1990 ± 990 µM | 5.83e-05 ± 1.3e-05 s⁻¹ | 9.73e-05 ± 1.3e-05 s⁻¹ | 0.000586 ± 6.9e-05 s⁻¹ | 0.000865 ± 0.00014 s⁻¹ | 0.00133 ± 0.0002 s⁻¹
6 | A12U C50A | 0.000111 ± 2.6e-06 s⁻¹ | 1660 ± 130 µM |  |  | 3.27e-05 ± 1.3e-05 s⁻¹ | 6.47e-05 ± 1.4e-05 s⁻¹ | 9.58e-05 ± 1.2e-05 s⁻¹
7 | A12G G32C C68G | 1.4e-05 ± 2.2e-06 s⁻¹ |  |  |  |  |  | 
8 | A12U A36U C68A | 1.17e-05 ± 3.8e-06 s⁻¹ |  |  |  |  |  | 
9 | A12U G44C | 0.000244 ± 2.8e-05 s⁻¹ | 2040 ± 560 µM |  |  | 5.33e-05 ± 1.1e-05 s⁻¹ | 0.000168 ± 2.9e-05 s⁻¹ | 0.000195 ± 2.3e-05 s⁻¹
10 | A12G C16U | 0.00221 ± 0.00096 s⁻¹ |  |  | 4.12e-05 ± 9.2e-06 s⁻¹ | 0.000179 ± 2.1e-05 s⁻¹ | 0.00036 ± 4.1e-05 s⁻¹ | 0.00119 ± 0.0001 s⁻¹
11 | G13A U31G | 0.000328 ± 7.1e-05 s⁻¹ |  |  |  |  | 6.35e-05 ± 1.5e-05 s⁻¹ | 0.000153 ± 2.2e-05 s⁻¹
12 | A12U A14U | 0.00461 ± 0.0012 s⁻¹ | 2000 ± 750 µM | 0.00011 ± 1.2e-05 s⁻¹ | 0.000269 ± 5.6e-05 s⁻¹ | 0.00119 ± 0.00018 s⁻¹ | 0.00188 ± 0.00031 s⁻¹ | 0.00449 ± 0.00046 s⁻¹
13 | A12U A14C | 0.00505 ± 0.0013 s⁻¹ | 1630 ± 560 µM | 0.000142 ± 1.3e-05 s⁻¹ | 0.000429 ± 6.9e-05 s⁻¹ | 0.00117 ± 0.00016 s⁻¹ | 0.00261 ± 0.00038 s⁻¹ | 0.00546 ± 0.00066 s⁻¹
14 | A12U U45G | 0.0202 ± 0.0044 s⁻¹ | 1870 ± 530 µM | 0.000515 ± 6.4e-05 s⁻¹ | 0.00127 ± 0.00021 s⁻¹ | 0.00546 ± 0.0011 s⁻¹ | 0.0134 ± 0.0027 s⁻¹ | 0.0165 ± 0.0026 s⁻¹
15 | A12G A42U A53C | < 1e-05 s⁻¹ |  | < 1e-05 s⁻¹ |  |  |  | 
16 | G13A G32U | 0.000303 ± 3.2e-05 s⁻¹ | 3170 ± 600 µM |  |  | 4.76e-05 ± 1e-05 s⁻¹ | 0.000147 ± 2.3e-05 s⁻¹ | 0.000221 ± 3.7e-05 s⁻¹
17 | G13A U55C | 0.000582 ± 0.00014 s⁻¹ | 2910 ± 1300 µM |  | 3.73e-05 ± 1.6e-05 s⁻¹ | 0.000123 ± 1.6e-05 s⁻¹ | 0.000191 ± 3.5e-05 s⁻¹ | 0.000492 ± 4.8e-05 s⁻¹
